Measurements reported in paper PMC4772809, “Network of protein interactions within the Drosophila inner kinetochore” (Open Biology, 2016).
One block for each molecule: values may come before it.

B2: 6xHis::Nnf1a–Mis12 heterodimer (complex, Drosophila melanogaster)
chain 1: MEDSEAAFKRHEGVGPKVKQAYEEAIKQIFADLSCADLQAWDAIYQEHEQSALDTESIVDRTRSLMTKVVLEMNRCFFASNDVPNKLQTLEMLKEHFAAYEGKKWNVNTAAPDKLTRPLRMRFLDFSVEFMEQQLASQAKELEIAMAKSNANRERLQHVHDKRLKLTVQMEQQLSQYEKVKTELIKLGEALNDF
chain 2: MDFNSLAYDQKFFNFTAAQLSAEREHIVQDIIKKGIGQIIDKIKTPATAELLEAEKETVERRFQASASKGLKALRELDSKVFHVPPHVLHPEHMFVENQYTSEEEEQKTARLEELKAKYRENMAMLAHLKIEEEKYAAMEDLIQKEIEMQDRVQRSCSSLNITKLKQFWNQVPLQIKKETD
notes: Nnf1a, as m1; Mis12, as m2; 1 : 1 by SEC-MALS; also called MN dimer; MN; source: E. coli BL21(DE3), co-expressed from Duet vectors; in lysate for Ni-NTA co-purification, then purified (Ni-NTA, SEC); copies: 1 + 1

Columns and labels:
[1] = target: Mis12–Nnf1a–CENP-C^1–94 complex (Drosophila melanogaster) (UniProt Q9VHP9); assay: SEC-MALS; complexes already collected from SEC, stored at 4 °C in SEC buffer and re-loaded; two elution peaks, masses by MALS
6xHis::CENP-C^1–94 = target: T1, 6xHis::CENP-C^1–94 (Drosophila melanogaster, UniProt Q9VHP9 1-94); assay: SEC-MALS; co-expressed, co-purified complexes on Superdex 200 10/300 at 4 °C, 150 mM NaCl, 10 mM Tris/HCl pH 8.0, in-line MALS and refractometer; details: both partners purified
T1 construct: also called His-tagged CENP-C 1-94; source: E. coli BL21(DE3)
T1 sequence (looked up): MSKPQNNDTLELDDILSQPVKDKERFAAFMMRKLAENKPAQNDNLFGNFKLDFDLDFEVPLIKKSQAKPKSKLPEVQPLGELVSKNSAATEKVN

6xHis::Nsl1 = target: T2, 6xHis::Nsl1 (Drosophila melanogaster, UniProt Q9VYX4 1-183); assay: as above; details: both partners purified
T2 construct: residues up to 183 are printed; not the NSL-complex protein of the same name; source: E. coli BL21(DE3), co-expressed from Duet vectors (induced overnight); in lysate for Ni-NTA co-purification, then purified (Ni-NTA, SEC)
T2 sequence (looked up): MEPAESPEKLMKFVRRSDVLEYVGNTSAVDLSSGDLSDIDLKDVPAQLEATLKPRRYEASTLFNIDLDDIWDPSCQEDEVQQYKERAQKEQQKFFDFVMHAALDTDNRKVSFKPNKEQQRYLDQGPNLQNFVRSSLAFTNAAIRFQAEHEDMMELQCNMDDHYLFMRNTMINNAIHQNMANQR

[2] = target: the molecule itself; assay: SEC-MALS; complexes already collected from SEC, stored at 4 °C in SEC buffer and re-loaded; two elution peaks, masses by MALS
6xHis::Nnf1a = target: T3, 6xHis::Nnf1a (Drosophila melanogaster, UniProt Q7JZC9 1-194); assay: SEC-MALS; co-expressed, co-purified complexes on Superdex 200 10/300 at 4 °C, 150 mM NaCl, 10 mM Tris/HCl pH 8.0, in-line MALS and refractometer; details: both partners purified
T3 construct: written 6xHis::Nnf1a; also called polyhistidine (His)-tagged Nnf1a; source: E. coli BL21(DE3), co-expressed from Duet vectors; in lysate for Ni-NTA co-purification, then purified (Ni-NTA, SEC)
T3 sequence (looked up): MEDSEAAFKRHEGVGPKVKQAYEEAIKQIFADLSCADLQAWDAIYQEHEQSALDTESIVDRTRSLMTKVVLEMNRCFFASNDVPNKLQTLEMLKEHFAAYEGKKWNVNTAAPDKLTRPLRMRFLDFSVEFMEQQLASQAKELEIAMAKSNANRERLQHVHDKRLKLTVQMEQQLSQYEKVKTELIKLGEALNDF

Nnf1a^122–147 peptide = target: T4, Nnf1a^122–147 peptide (Drosophila melanogaster, N-terminus acetylated; C-terminus amidated); assay: circular dichroism; synthetic peptides alone and in equimolar mixture, 0.1 M PBS pH 7.4, 195–270 nm, room temperature; details: both partners purified
T4 construct: also called Peptide Nnf1; Nnf1a R122-A147; source: synthetic peptide, bought: GenScript
T4 peptide: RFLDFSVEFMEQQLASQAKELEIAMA

[3] = target: B2; assay: SEC-MALS; co-expressed, co-purified complexes on Superdex 200 10/300 at 4 °C, 150 mM NaCl, 10 mM Tris/HCl pH 8.0, in-line MALS and refractometer; details: both partners purified

Molecule: B2
- stoichiometry N [2]: 2

B5: CENP-C^1–94 (untagged, recombinant) (domain or fragment, Drosophila melanogaster, UniProt Q9VHP9 1-94, looked up)
chain: MSKPQNNDTLELDDILSQPVKDKERFAAFMMRKLAENKPAQNDNLFGNFKLDFDLDFEVPLIKKSQAKPKSKLPEVQPLGELVSKNSAATEKVN
notes: also called amino-terminal part of CENP-C (residues 1–94); source: E. coli BL21(DE3), co-expressed from Duet vectors; in lysate for Ni-NTA co-purification, then purified (Ni-NTA, SEC)
- stoichiometry N [3]: 1

Results, then the molecule that gave them:

- stoichiometry N [1]: 2
Molecule: Mis12–Nnf1a–CENP-C^1–94 complex (from UniProt Q9VHP9 1-94)

- stoichiometry N (6xHis::CENP-C^1–94): 1
- stoichiometry N (6xHis::Nsl1): 1
B1: Nnf1a + Mis12 (both untagged) (complex, Drosophila melanogaster)
chain 1: MEDSEAAFKRHEGVGPKVKQAYEEAIKQIFADLSCADLQAWDAIYQEHEQSALDTESIVDRTRSLMTKVVLEMNRCFFASNDVPNKLQTLEMLKEHFAAYEGKKWNVNTAAPDKLTRPLRMRFLDFSVEFMEQQLASQAKELEIAMAKSNANRERLQHVHDKRLKLTVQMEQQLSQYEKVKTELIKLGEALNDF
chain 2: MDFNSLAYDQKFFNFTAAQLSAEREHIVQDIIKKGIGQIIDKIKTPATAELLEAEKETVERRFQASASKGLKALRELDSKVFHVPPHVLHPEHMFVENQYTSEEEEQKTARLEELKAKYRENMAMLAHLKIEEEKYAAMEDLIQKEIEMQDRVQRSCSSLNITKLKQFWNQVPLQIKKETD
notes: Nnf1a, as m6; Mis12, as m2; co-purified through a His tag on the third co-expressed protein; also called Mis12–Nnf1a dimer; MN dimer; source: E. coli BL21(DE3), co-expressed from Duet vectors; in lysate for Ni-NTA co-purification, then purified (Ni-NTA, SEC); copies: 1 + 1

- stoichiometry N (6xHis::Nnf1a): 1
B3: Mis12 (untagged, recombinant) (natural protein, Drosophila melanogaster, UniProt Q9VS01 1-181, looked up)
chain: MDFNSLAYDQKFFNFTAAQLSAEREHIVQDIIKKGIGQIIDKIKTPATAELLEAEKETVERRFQASASKGLKALRELDSKVFHVPPHVLHPEHMFVENQYTSEEEEQKTARLEELKAKYRENMAMLAHLKIEEEKYAAMEDLIQKEIEMQDRVQRSCSSLNITKLKQFWNQVPLQIKKETD
notes: source: E. coli BL21(DE3), co-expressed from Duet vectors; in lysate for Ni-NTA co-purification, then purified (Ni-NTA, SEC)

- binding result (Nnf1a^122–147 peptide): binds
B4: Mis12^101–130 peptide (peptide)
peptide: Ac-TSEEEEQKTARLEELKAKYRENMAMLAHLK-NH2
notes: also called Mis12 peptide; Mis12 T101-K130; source: synthetic peptide, bought: GenScript
